Source: article PMC2810249
Square brackets hold non-standard residues; d marks the D form. pY = N[C@@H](Cc1ccc(OP(=O)(O)O)cc1)C(=O)O

How the values were obtained:
Test in all cases: NMR titration
Itk SH3(E189Q) domain = molecular target: Itk SH3(E189Q) domain
[1] = molecular target: Itk SH3 domain (wild type)
Itk SH3(Y180E) domain = molecular target: Itk SH3(Y180E) domain
Itk SH3(E189K) domain = molecular target: Itk SH3(E189K) domain
Itk SH2(I282A) domain = molecular target: Itk SH2(I282A) domain

In the case of “Itk SH2 domain (wild type) (domain or fragment)”, the Kd (Itk SH3(E189Q) domain) is reported as 2050 µM and the Kd [1] is reported as 670 µM.

Work on “Itk SH2(K280A) domain (domain or fragment)” yielded a fold drop in affinity against SH3(Y180E)/wild type SH2 (Itk SH3(Y180E) domain) of 10 fold.

“Itk SH2(K309E) domain (domain or fragment)” was tested, and the Kd [1] was 1850 µM and the Kd (Itk SH3(E189K) domain) was 1080 µM.

With “Itk SH2(R332A) domain (domain or fragment)” the Kd [1] was 1800 µM.

B1: phosphopeptide derived from Slp76 (Ac-ADpYEPP-NH2) (peptide)
peptide: Ac-AD[pY]EPP-NH2
SMILES: CC(=O)N[C@@H](C)C(=O)N[C@@H](CC(=O)O)C(=O)N[C@@H](Cc1ccc(OP(=O)(O)O)cc1)C(=O)N[C@@H](CCC(=O)O)C(=O)N1CCC[C@H]1C(=O)N1CCC[C@H]1C(N)=O
B1 was tested, and the Kd (Itk SH2(I282A) domain) was 1000 µM.
